Experimental data from patent US20250188180A1 (BIOINTRON BIOLOGICAL, published 2025).
Where a chain is given by its changes, count along the chain named.

B1: ANb24-Alpaca1-4M-2SP-149 (Fc fusion)
chain: EVQLVESGGGLVQPGGSLRLSCTASGSTLDIYAIGWFRQAPGKEREGVSCITGSGSSTRYAHSVTGRFTISRDNAKNTVFLQMNSLKPEDTAVYYCAKARLLSRLCVPSPDFESWGQGTQVTVSS
notes: also called ANb24-A1-4M-2SP-149; ANb24-Alpacal-4M-2SP-149; not shown: Fc joined to the VHH by overlap PCR
B2: ANb24-Alpaca1-4M-2SP-180 (Fc fusion)
chain: B1 chain with E1Q, V2P, L4F, H62D, E89D, R104M
notes: also called ANb24-A1-4M-2SP-180; ANb24-Abpacal-4M-2SP-180; not shown: Fc joined to the VHH by overlap PCR
B3: ANb24-Alpaca1-4M-2SP-273 (Fc fusion)
chain: EVQLVESGGGLVQPGGSLRLSCAASGSTLDYYAIGWFRQAPGKEREGVSCISGSGGSTRYADSVTGRFTISKDSAKNTVYLEMNSLKPEDTAVYYCARARLLSRLCVPSADFDSWGQGTQVTVSS
notes: also called ANb24-A1-4M-2SP-273; ANb24-Alpacal-4M-2SP-273; not shown: Fc joined to the VHH by overlap PCR
B4: ANb24-Alpaca1-4M-2SP-226 (Fc fusion)
chain: QLQLVESGGGLVQPGGTLRLSCAASGVTLEYYSIGWFRQSPGKEREGVSCISGGGVQRYADSAEGRFAISRDNAKNMVYLQMNNLEPEDTAVYYCARARLLMRGCAPMDNYWGQGTQVTVSS
notes: also called ANb24-A1-4M-2SP-226; ANb24-Alpacal-4M-2SP-226; not shown: Fc joined to the VHH by overlap PCR
B5: ANb24-Alpaca1-4M-2SP-175 (Fc fusion)
chain: QPHFVESGGGLVQPGGSLRLSCVASGFTFEYVPIGWFRQAPGKEREGVSCITPTGITRNADSVKGRFTISRDNAKNTVYLQLNSLKPEDTAVYYCAKARLLSTSCVQTSDARGQGTQVTVSS
notes: also called ANb24-A1-4M-2SP-175; ANb24-Alpacal-4M-2SP-175; not shown: Fc joined to the VHH by overlap PCR
B6: ANb24-Alpaca1-4M-2SP-317 (Fc fusion)
chain: QLQLVESGGDLVQPGGSLRLSCTASGHTLEYYAIGWFRQAPGKEREGVSCIIGSGGSTRYFDSVLGRFTISRDNAKNTVFLQMNSLKPEDTAVYYCAKVRLLSRLCVPSSDFDSWGQGTQVTVSS
notes: also called ANb24-A1-4M-2SP-317; ANb24-Alpacal-4M-2SP-317; not shown: Fc joined to the VHH by overlap PCR
B7: ANb24-Alpaca1-4M-2SP-335 (Fc fusion)
chain: QPQFVESGGGLVQPGGTLRLSCAASGFTFEYYTIGWFRQTPGKEREGVSCITAAGVPRNADSAKGRFTISRDNAKNMVYLQMNNLKPEDTAVYYCAQARLLSTSCAPMNDYWGQGTQVTVSS
notes: also called ANb24-A1-4M-2SP-335; ANb24-Alpacal-4M-2SP-335; not shown: Fc joined to the VHH by overlap PCR
B8: ANb24-Alpaca1-4M-2SP-332 (Fc fusion)
chain: QVQLVESGGGLVQPGGSLRLSCAASGSTLASYAIGWFRQAPGKEREGISCISGSGGSTRAADSVQGRFTISRDNAKNTVSLQMNSLKPEDTAIYYCAKVRLLSRGCVPSPDFDSWGQGTQVTVSS
notes: also called ANb24-A1-4M-2SP-332; ANb24-Alpacal-4M-2SP-332; not shown: Fc joined to the VHH by overlap PCR

Target: CD40 antigen on cells (cell-based binding assay) (UniProt P25942)
Sequence (P25942 21-277 limits assumed): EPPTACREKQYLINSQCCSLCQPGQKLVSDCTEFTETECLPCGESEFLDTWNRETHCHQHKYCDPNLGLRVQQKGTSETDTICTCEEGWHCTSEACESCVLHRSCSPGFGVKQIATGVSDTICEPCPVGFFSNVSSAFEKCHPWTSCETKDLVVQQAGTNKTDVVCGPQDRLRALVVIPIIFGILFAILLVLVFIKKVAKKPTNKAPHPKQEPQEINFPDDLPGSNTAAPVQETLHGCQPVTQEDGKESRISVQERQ
Experiment: cell-based binding assay on CD40 cells

Molecule | X Mean
anti-CD40/APX005M (control antibody) | 10700

Target: T1, CD40 antigen on cells (cell-based binding assay) (UniProt P25942 21-277, limits assumed)
T1 construct: whole, on cells; the cells are not described
T1 sequence (P25942 21-277 limits assumed): as above
Experiment: cell-based binding assay, 293F culture supernatant

Molecule | X Mean
B1 | 11500
B2 | 10800
B3 | 4420
B4 | 10700
B5 | 10500
B6 | 8970
B7 | 8960
B8 | 4080
